The term Kd denotes the equilibrium constant for the complex coming apart. The koff is a measure of how fast the partners let go of each other.

The target of experiment [1] is T1, Biotinylated SARS-CoV-2 S protein RBD with a C-terminal AviTag (SARS-CoV-2, UniProt P0DTC2 319-541). Kind of experiment: BLI.
The target in experiment [2] is T1, Biotinylated SARS-CoV-2 S protein RBD …. Kind of experiment: BLI. The source holds these as a separate data set.

B1: NIH-CoVnb-113 (VHH)
VHH: DVQLQESGGGLVQPGGSLRLSCAASGLTLDYYAIGWFRQAPGKEREGVSCISSSDGSTYYADSVKGRFTTSRDNAKNTVYLQMNSLKPEDTAVYYCAAVPSTYYSGTYYYTCHPGGMDYWGKGTLVTVSS
B1 came in with a dissociation constant (Kd) in experiment [1] of 8.19 nM. This molecule returned a koff in experiment [2] of 0.000804 s⁻¹.

B2: NIH-CoVnb-108 (VHH)
VHH: DVQLQESGGGLVQPGGSLRLSCAASGFTLDYYAIGWFRQAPGKEREGVSCISNSGGSTYYADSVKGRFTTSRDNAKNTVYLQMNSLKPEDTAVYYCAAVPSTYYSGSYYYTCHPGGMDYWGKGTQVTVSS
For B2, binding in experiment [1] was put at a Kd of 26.6 nM. In addition, in experiment [2], the dissociation rate constant (koff) stood at 0.00109 s⁻¹.

B3: NIH-CoVnb-109 (VHH)
VHH: DVQLQESGGGLVQSGGSLRLSCAASGFTLDYYAIGWFRQAPGKEREGVSCITNSDGSTYYADSVKGRFTTSRDNAKNTVYLQMNSLKPEDTAVYYCASFPSTYYSGSYYYTCHPGGMDYWGKGTQVTVSS
B3 gave a Kd in experiment [1] of 58.5 nM. The koff in experiment [2] amounted to 0.00188 s⁻¹.

B4: NIH-CoVnb-103 (VHH)
VHH: DVQLQESGGGLVQPGGSLRLSCAASGLTLDYYTIGWFRQAPGKEREGVSCISSSDDSTYYADSVKGRFTISRDNAKNTVYLQMNSLKPEDTAVYYCATAPGTYYKGSYYPMCHYYGMDYWGKGTQVTVSS
For the molecule B4, in experiment [1], the Kd stood at 9.43 nM. The dissociation rate constant (koff) in experiment [2] turned out to be 0.00286 s⁻¹.

The values above are taken from article PMC7755911 (2020).
